Test results published in patent US20230398228A1, “ERIBULIN-BASED ANTIBODY-DRUG CONJUGATES AND METHODS OF USE” (EISAI R&D MANAGEMENT CO., LTD., priority 2016, published 2023).

Tests used:
[1] = DAR analysis by LC-MS (UPLC/ESI-MS, reverse-phase LC-MS); settings: reverse-phase LC-MS
Procedure: ADCs were deglycosylated using PNGase F (New England BioLabs). G7 buffer (10 μL) and PNGase F (2 μL) were added to the mAb (90 μL, 1 mg/mL in DPBS). The reaction was incubated in a Discover microwave (CEM) for 2 cycles: (1) microwave power 10 W, 37° C., 10 min, followed by a 5-min pause; (2) microwave power 2 W, 37° C., 10 min. A portion of the sample was reduced by adding DTT to a final concentration of 20 mM, followed by incubation at 60° C. for 3 min. Samples were then analyzed using a Waters Acquity Ultra Performance Liquid Chromatography (UPLC) and quadrupole time of flight (Q-Tof) Premier mass spectrometer. Samples (0.5-2 μg each) were injected onto a MassPrep™ micro desalting column at 65° C., eluted from the column with a 5 min equilibration in 95% of mobile phase A, a 10 min gradient (5-90% B), and a 10 min re-equilibration in 95% of mobile phase A, at 0.05 mL/min. Mobile phase A was 0.1% formic acid in water. Mobile phase B was 0.1% formic acid in acetonitrile. The Q-Tof mass spectrometer was run in positive ion, V-mode with detection in the range of 500-4000 m/z. The source parameters were as follows: capillary voltage, 2.25 kV (intact antibody)-2.50 kV (reduced antibody); sampling cone voltage, 65.0 V (intact antibody) or 50.0 V (reduced antibody); source temperature, 100° C.; desolvation temperature, 250° C.; desolvation gas flow, 550 L/hr. The protein peak was deconvoluted using the MassLynx® MaxEnt 1 function. Relative intensities of each unconjugated, singly-conjugated, and multiply-conjugated heavy and light chain masses were combined to calculate the overall DAR using the formula:
2[[ILC+1+2(ILC+2)+3(ILC+3)+ . . . n(ILC+n)]/ΣILCtot]+2[[IHC+1+2(IHC+2)+3(IHC+3)+ . . . n(IHC+n)]/ΣIHCtot]
where ILC+1 is mass intensity of light chain conjugated with one cytotoxin, ILC+2 is mass intensity of light chain conjugated with two cytotoxins, etc. IHC are the intensities from the corresponding conjugated heavy chains, and ΣILCtot and ΣIHCtot are the combined intensities of all unconjugated and conjugated light chains and heavy chains, respectively.
DAR was also analyzed using an LC-MS method with a Waters Alliance HPLC with SQD/PDA detection. Samples were injected onto a Proteomix RP-1000 column ([…], 1000A, 4.6 mm×15 cm, Sepax) at 65° C., and eluted with a 3 min equilibration in 25% B, a 27 min linear gradient from 25%-55% B, a 5 min hold at 55% B, a 1 min change to 90% B, a 5 min hold at 90% B, a 1 min change back to 25% B, and a 5 min reequilibration at 25% B. Mobile phase A was 0.1% TFA in water, and mobile phase B was 0.1% TFA in acetonitrile. The elute was then split (10:1) into PDA and SQD detectors. The SQD detector was set up as ES positive, capillary voltage at 3.2 kV, cone voltage at 40 V, extractor at 3 V, and RF lens at 0.2 V, source temperature at 150° C., and desolvation temperature at 250° C. Mass data was acquired at 200-2000 m/z for 40 min, continuum mode, scan time 1 second. Data was analyzed and deconvoluted offline using MassLynx and MaxEnt1. DAR was calculated using the formula:
2[[AUCLC+1+2(AUCLC+2)+3(AUCLC+3)+ . . . n(AUCLC+n)]/[…]]+2[[AUCHC+1+2(AUCHC+2)+3(AUCHC+3)+ . . . n(AUCHC+n)]/ΣAUCHCtot]
where AUCLC+1 is the area under the curve of the light chain peak conjugated with one cytotoxin, AUCLC+2 is the area under the curve of the light chain peak conjugated with two cytotoxins, etc. AUCHC is the area under the curve of the corresponding heavy chains, and ΣAUCLCtot and ΣAUCHCtot are the combined area under the curve of all unconjugated and conjugated light chains and heavy chains, respectively.

[2] = DAR analysis by HIC-HPLC
Procedure: Samples were injected onto a TSKgel® Ether-5 PW, 7.5 mm ID×7.5 cm, 10 μM pore size, and eluted from the column with a 3 min equilibration in 100% of mobile phase A, a 15 min gradient (0-100% B), a 5 min hold in 100% B, a 1 min change to 100% A, and a 5 min re-equilibration in 100% of mobile phase A, at 0.7 mL/min. Mobile phase A was 25 mM sodium phosphate, 1.5 M ammonium sulfate, pH 7.0. Mobile phase B was 25 mM sodium phosphate, 25% isopropanol, pH 7.0. Detection was done at 280 nm (reference 320 nm). DAR was determined by the formula:
[AUC+1+2(AUC+2)+3(AUC+3)+ . . . n(AUC+n)]/ΣAUCtot]
where AUC+1 is the area under the curve for the mAb peak corresponding to ADC conjugated with one cytotoxin, AUC+2 is the area under the curve for the mAb peak corresponding to ADC conjugated with two cytotoxins, etc. ΣAUCtot is the combined area under the curve for all peaks.
DAR was analyzed using hydrophobic interaction HPLC (HIC-HPLC). Samples were injected onto a TSKgel® Butyl-NP5, 4.6 mm ID×3.5 cm, 2.5 μM nonporous size column (Tosoh Bioscience), and eluted with a 3 min equilibration in 100% of mobile phase A, a 15 min gradient (0-100% B), a 5 min hold in 100% B, a 1 min change to 100% A, and a 5 min re-equilibration in 100% of mobile phase A, at 0.7 mL/min. Mobile phase A was 25 mM sodium phosphate, 1.5 M ammonium sulfate, pH 7.0. […] DAR was determined by the formula: […]

[3] = system: IGROV1 cells; assay: Crystal Violet cytotoxicity assay (Example 4), IGROV1; assay type: cell-based, human; settings: mean of replicate experiments, read-out: Cytotoxicity IC50 (nM), IGROV1 (FR^hi, MSLN^neg)
Procedure: Test reagents were serial diluted 1:3 in 2 mL deep-well dilution plates, starting at 200 nM (10 dilutions total). […] Medium was then discarded. […] Plates were read at 570 nm. Data was analyzed using GraphPad Prism 6.

Substance	DAR (LC-MS) [1]	DAR (HIC-HPLC) [2]	IC50 [3] [nM]
MORAb009-PEG2-eribulin	4.55	4.30	42.8
MORAb009-PEG4-eribulin	4.48	4.57	76.3
